# Patent US20240288446A1, “METHOD FOR DIAGNOSING FIBRINOLYTIC INSUFFICIENCY RELATED TO NEUTROPHIL EXTRACELLULAR TRAPS” (Hôpitaux Universitaires de Strasbourg, priority 2019, published 2024)
# B1: purified plasminogen: Human Glu-plasminogen, purified, over 99% pure; 92-kDa single-chain proenzyme (SEQ ID NO 1) (protein, listed as Homo sapiens)
# chain: EPLDDYVNTQGASLFSVTKKQLGAGSIEECAAKCEEDEEFTCRAFQYHSKEQQCVIMAENRKSSIIIRMRDVVLFEKKVYLSECKTGNGKNYRGTMSKTKNGITCQKWSSTSPHRPRFSPATHPSEGLEENYCRNPDNDPQGPWCYTTDPEKRYDYCDILECEEECMHCSGENYDGKISKTMSGLECQAWDSQSPHAHGYIPSKFPNKNLKKNYCRNPDRELRPWCFTTDPNKRWELCDIPRCTTPPPSSGPTYQCLKGTGENYRGNVAVTVSGHTCQHWSAQTPHTHNRTPENFPCKNLDENYCRNPDGKRAPWCHTTNSQVRWEYCKIPSCDSSPVSTEQLAPTAPPELTPVVQDCYHGDGQSYRGTSSTTTTGKKCQSWSSMTPHRHQKTPENYPNAGLTMNYCRNPDADKGPWCFTTDPSVRWEYCNLKKCSGTEASVVAPPPVVLLPDVETPSEEDCMFGNGKGYRGKRATTVTGTPCQDWAAQEPHRHSIFTPETNPRAGLEKNYCRNPDGDVGGPWCYTTNPRKLYDYCDVPQCAAPSFDCGKPQVEPKKCPGRVVGGCVAHPHSWPWQVSLRTRFGMHFCGGTLISPEWVLTAAHCLEKSPRPSSYKVILGAHQEVNLEPHVQEIEVSRLFLEPTRKDIALLKLSSPAVITDKVIPACLPSPNYVVADRTECFITGWGETQGTFGAGLLKEAQLPVIENKVCNRYEFLNGRVQSTELCAGHLAGGTDSCQGDSGGPLVCFEKDKYILQGVTSWGLGCARPNKPGVYVRVSRFVTWIEGVMRNN
# System: septic shock plasma euglobulin fraction on fibrin-bound tPA
# Assay: Plasmin formation on tPA-fibrin surfaces from euglobulin fraction of septic shock plasma supplemented with plasminogen
# Type: biochemical, human
# Details: plasminogen normalized to 1.5 μM
# Experimental: FIG. 5 represents the Fibrinolytic activity of plasma isolated from septic shock. The fibrinolytic activity of plasma was tested by incubating the corresponding euglobulin fraction with fibrin surfaces to which tPA (50 iu/ml) was previously bound. The euglobulin fraction contains plasminogen and plasminogen fragments bearing K1, K4 and K5 as identified by mass spectrometry (see text and Supplemental file). The amount of plasmin formed was quantified by measuring the change in absorbance at A405 nm using a chromogenic substrate selective for plasmin as indicated in FIG. 3. […]
# Plasminogen was quantified with a functional activity assay as described with modifications.(41) Briefly, plasmas were diluted 1:50 in assay buffer (Phosphate 80 mM, NaCl 50 mM, BSA 2 mg/ml), supplemented with 75 i.u./ml urokinase, 1 mM tranexamic acid and 0.75 mM of the plasmin-selective chromogenic substrate in a final volume of 50 μl. […] Plasminogen fragments present in plasma were initially detected by Western blot as indicated above. […] Plasmin formation on fibrin matrices was measured using the euglobulin fraction from healthy control and patient plasmas as source of plasminogen as indicated above. […] Kinetics of plasminogen transformation into plasmin was followed during 1 h by measuring the release of pNA at A405 nm and the initial velocity of the reactions were calculated as indicated above. […]
molecule,measurement,setting,value
B1,amount of plasmin formed after plasminogen supplementation,"plasma samples S1, S3, S5",increased with a trend to normality
same,amount of plasmin formed after plasminogen supplementation,"plasma samples S2, S4, S6",insufficient or scant response
